Several values for one entry are separate records, joined by “and”; a condition that tells them apart may be missing. Identical values can stand only once.
T1: recombinant, full-length human claudin-1 (human), O95832
T1 chain: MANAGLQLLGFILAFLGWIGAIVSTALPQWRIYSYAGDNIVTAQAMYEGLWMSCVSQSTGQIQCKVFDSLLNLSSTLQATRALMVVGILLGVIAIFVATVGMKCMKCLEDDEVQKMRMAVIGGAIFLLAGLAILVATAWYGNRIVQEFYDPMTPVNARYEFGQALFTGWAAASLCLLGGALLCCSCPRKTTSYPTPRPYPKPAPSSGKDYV

B1: recombinant, full-length human claudin-1, O95832 1-211 (natural protein)
chain: T1 chain

How the values were obtained:
[1] = biological target: recombinant, full-length human CD81 with six putative palmitoylation sites mutated to alanine (human) (UniProt P60033); experiment: dynamic light scattering; single purified proteins in detergent micelles (claudin-1 in foscholine-10, CD81 in βOG), with and without CHEMS, 20°C; oligomeric state predicted from the hydrodynamic radius
[2] = biological target: recombinant, full-length human claudin-1 (human) (UniProt O95832); experiment: dynamic light scattering; purified proteins in detergent micelles (claudin-1 in foscholine-10, CD81 and CD82 in βOG) mixed at a 1:2 molar ratio, with and without CHEMS, 20 mM MOPS pH 8, 1% βOG, 20°C, followed for 23-36 h
[3] = biological target: T1, recombinant, full-length human …; experiment: AUC; claudin-1 in βOG micelles; sedimentation velocity, continuous c(s) distribution model (SEDFIT); details: remark: other sources report otherwise
[4] = biological target: T1, recombinant, full-length human …; experiment: reducing SDS-PAGE (Coomassie); proteins solubilised in βOG and eluted from a nickel affinity column; details: remark: other sources report otherwise
[5] = biological target: T1, recombinant, full-length human …; experiment: non-reducing SDS-PAGE with immunoblot; P. pastoris total membranes, 1 µg protein per well, sample buffer without β-mercaptoethanol, 12% gel, blot with anti-His6; details: remark: other sources report otherwise
[6] = biological target: T1, recombinant, full-length human …; experiment: dynamic light scattering; single purified proteins in detergent micelles (claudin-1 in foscholine-10, CD81 in βOG), with and without CHEMS, 20°C; oligomeric state predicted from the hydrodynamic radius; details: remark: other sources report otherwise

| Molecule | stoichiometry N [1] | stoichiometry N [2] | stoichiometry N [3] | stoichiometry N [4] | stoichiometry N [5] | stoichiometry N [6] |
| --- | --- | --- | --- | --- | --- | --- |
| recombinant, full-length human CD81 with six putative palmitoylation sites mutated to alanine (from UniProt P60033 1-236) (natural protein) | 2 | 2 |  |  |  |  |
| B1 |  |  | 2 | 2 | 2 and 3 | 2 |

Reference: PMC3660353
